From US20250346589A1, “RADIOISOTOPE LABELED SSTR2-AGONISTS WITH LINKERS” (Erasmus University Medical Center Rotterdam, priority 2022, published 2025) come the findings set out here.

One data set can be described thus: in vitro. Format: in vitro ADME. As to conditions: for remaining at 1 h / remaining at 4 h / remaining at 24 h: mouse, serum, Stability in mouse serum (%). On the procedure:
The ^203Pb-labelled compounds (˜2 MBq) or the ^212Pb-labelled compounds (˜70 kBq) were incubated in 300 μL of phosphate buffered saline (PBS; 0.1 M, pH 7.4) or mouse serum at 37° C. Stability of the radiolabed peptides was monitored at 1, 4 and 24 h post incubation. The samples in PBS were directly analyzed by radio-HPLC without any pretreatment. However, samples in mouse serum were mixed with an equal volume of acetonitrile to precipitate the proteins. The solution was centrifuged twice for 5 min at 13,000 rpm, and the supernatant was analyzed by radio-HPLC using Method 1 for lead-203 and Method 2 for lead-212.

The subject of data set [1] is H69-tumor xenograft and organs. Details: species or system mice. As to conditions: mouse, in vivo, iv. As for the experimental part: Six-week-old male Balb/c nu/nu-specific and opportunistic pathogen-tree (SOPF) mice (Janvier Labs, Le Genest-Saint-Isle, France) were housed in individually ventilated cages, with 4 mice per cage. Upon arrival, mice were acclimated for 1 week, with access to food and water ad libitum. Mice were subcutaneously inoculated on the right shoulder with NCI-H69 cells (5×10^6 cells suspended in 100 μL of ⅓ Matrigel (Corning Inc., Corning, NY, USA) and ⅔ Hank's balanced salt solution (Gibco). NCI-H69 xenografts were allowed to grow for 3 weeks. Tumor sizes were 391±173 mm^3 at the start of the studies. All animal experiments were approved by the Animal Welfare Committee of the Erasmus MC and were conducted in agreement with institutional guidelines (license number: AVD101002017867).
Biodistribution studies were performed to determine tumor and organ uptake of [^212Pb]Pb-DOTAMTATE, [^212Pb]Pb-DOTAM-Amcha-TATE or [^212Pb]Pb-DOTAM-Pip-TATE. Animals (n=4 for each time point and each compound) were injected intravenously with an average of 100 kBq/0.5 nmol at t=0. At 3 selected time points (1, 4 and 24 h) p.i. blood was collected via cardiac puncture under isoflurane/O2 anesthesia, after which the mice were sacrificed. The tumor and organs of interest (prostate, pancreas, spleen, liver, GI tract (stomach, small intestine, large intestine), kidneys, lungs, heart, muscle, bone and tail) were excised, washed in PBS and blotted dry. To confirm receptor specificity of the 3 radiotracers uptake, NCI-H69-xenografted mice were co-injected with [212Pb] Pb-DOTAMTATE, [^212Pb]Pb-DOTAM-Amcha-TATE or [^212Pb]Pb-DOTAM-Pip-TATE plus an excess (25 nmol) of the respective unlabelled peptide (n=3), after which tumor and organ uptake was determined at 24 h p.i. The blood, tumor, and relevant organs were weighed and measured in a γ-counter. To determine the total injected radioactivity per animal, calibration curve with lead-212 was determined. The percentage of injected dose per gram (% ID/g) was determined for each tissue sample and corrected for both the injected volume and % ID present at the injection site (the tail). […] Pb-DOTAMTATE. In Table 3, the absorbed dose per administered activity (Gy/MBq; with RBE=5) in H69-tumor xenograft and organs for [^212Pb]Pb-DOTAM-TATE, [^212Pb]Pb-DOTAM-Amcha-TATE and [^212Pb]Pb-DOTAM-Pip-TATE is given.

The fraction remaining is what is left of the initial amount, in per cent.

On to `C[C@@H](O)[C@H](NC(=O)[C@@H]1CSSC[C@H](NC(=O)[C@@H](Cc2ccccc2)NC(=O)CN2CCN(CC(N)=O)CCN(CC(N)=O)CCN(CC(N)=O)CC2)C(=O)N[C@@H](Cc2ccc(O)cc2)C(=O)N[C@H](Cc2c[nH]c3ccccc23)C(=O)N[C@@H](CCCCN)C(=O)N[C@@H]([C@@H](C)O)C(=O)N1)C(=O)O` [[^212Pb]Pb-DOTAM-TATE, metal not drawn, reference compound], for which, in the data set “in vitro”, the fraction remaining at 1 h came to 99%, the share remaining at 4 h was 99% and the share remaining at 24 h amounted to 97%.

`C[C@@H](O)[C@H](NC(=O)[C@@H]1CSSC[C@H](NC(=O)[C@@H](Cc2ccccc2)NC(=O)CN2CCN(CC(N)=O)CCN(CC(N)=O)CCN(CC(N)=O)CC2)C(=O)N[C@@H](Cc2ccc(O)cc2)C(=O)N[C@H](Cc2c[nH]c3ccccc23)C(=O)N[C@@H](CCCCN)C(=O)N[C@@H]([C@@H](C)O)C(=O)N1)C(=O)O` [[^203Pb]Pb-DOTAM-TATE] [metal not drawn, reference compound]: the “Stability in mouse serum (%)” value in the data set “in vitro” (1 h), in the data set “in vitro” (4 h) and in the data set “in vitro” (24 h) was 99% each time.

In the case of `C[C@@H](O)[C@H](NC(=O)[C@@H]1CSSC[C@H](NC(=O)[C@@H](Cc2ccccc2)NC(=O)[C@H]2CC[C@H](CNC(=O)CN3CCN(CC(N)=O)CCN(CC(N)=O)CCN(CC(N)=O)CC3)CC2)C(=O)N[C@@H](Cc2ccc(O)cc2)C(=O)N[C@H](Cc2c[nH]c3ccccc23)C(=O)N[C@@H](CCCCN)C(=O)N[C@@H]([C@@H](C)O)C(=O)N1)C(=O)O` [[^203Pb]Pb-DOTAM-Amcha-TATE] [metal not drawn], the “Stability in mouse serum (%)” value in “in vitro” (1 h), in “in vitro” (4 h) and in the data set “in vitro” (24 h) was 100% throughout.

Consider `C[C@@H](O)[C@H](NC(=O)[C@@H]1CSSC[C@H](NC(=O)[C@@H](Cc2ccccc2)NC(=O)CN2CCN(CC(N)=O)CCN(CC(N)=O)CCN(CC(N)=O)CC2)C(=O)N[C@@H](Cc2ccc(O)cc2)C(=O)N[C@H](Cc2c[nH]c3ccccc23)C(=O)N[C@@H](CCCCN)C(=O)N[C@@H]([C@@H](C)O)C(=O)N1)C(=O)O` [[^212Pb]Pb-DOTAM-TATE] [metal not drawn, reference compound], for which, in data set [1], the “Absorbed dose per administered activity, Kidneys” value is 140.03 ± 17.95 Gy/MBq; the “Absorbed dose per administered activity, Large Intestines” value came out at 1.64 ± 0.30 Gy/MBq; the “Absorbed dose per administered activity, Liver” value was 6.93 ± 0.64 Gy/MBq; the “Absorbed dose per administered activity, Lung” value is 2.06 ± 0.29 Gy/MBq. In addition, in data set [1], the “Absorbed dose per administered activity, Pancreas” value was 3.65 ± 0.28 Gy/MBq; the “Absorbed dose per administered activity, Spleen” value came out at 0.56 ± 0.14 Gy/MBq; the “Absorbed dose per administered activity, Stomach wall” value is given as 4.42 ± 1.30 Gy/MBq; the “Absorbed dose per administered activity, Tumor” value came to 26.61 ± 19.27 Gy/MBq.

Turning to `C[C@@H](O)[C@H](NC(=O)[C@@H]1CSSC[C@H](NC(=O)[C@@H](Cc2ccccc2)NC(=O)CN2CCC(NC(=O)CN3CCN(CC(N)=O)CCN(CC(N)=O)CCN(CC(N)=O)CC3)CC2)C(=O)N[C@@H](Cc2ccc(O)cc2)C(=O)N[C@H](Cc2c[nH]c3ccccc23)C(=O)N[C@@H](CCCCN)C(=O)N[C@@H]([C@@H](C)O)C(=O)N1)C(=O)O` [[^212Pb]Pb-DOTAM-Pip-TATE, metal not drawn], in the data set “in vitro”, the share remaining at 1 h came out at 99%, the fraction remaining at 4 h was 99% and the share remaining at 24 h is 96%.

With `C[C@@H](O)[C@H](NC(=O)[C@@H]1CSSC[C@H](NC(=O)[C@@H](Cc2ccccc2)NC(=O)[C@H]2CC[C@H](CNC(=O)CN3CCN(CC(N)=O)CCN(CC(N)=O)CCN(CC(N)=O)CC3)CC2)C(=O)N[C@@H](Cc2ccc(O)cc2)C(=O)N[C@H](Cc2c[nH]c3ccccc23)C(=O)N[C@@H](CCCCN)C(=O)N[C@@H]([C@@H](C)O)C(=O)N1)C(=O)O` [[^212Pb]Pb-DOTAM-Amcha-TATE] [metal not drawn], in data set [1], the “Absorbed dose per administered activity, Kidneys” value is recorded as 121.73 ± 14.57 Gy/MBq; the “Absorbed dose per administered activity, Large Intestines” value amounted to 2.03 ± 0.26 Gy/MBq; the “Absorbed dose per administered activity, Liver” value came to 9.03 ± 2.24 Gy/MBq; the “Absorbed dose per administered activity, Lung” value is 3.20 ± 0.40 Gy/MBq. Also, in data set [1], the “Absorbed dose per administered activity, Pancreas” value is recorded as 5.40 ± 0.14 Gy/MBq; the “Absorbed dose per administered activity, Spleen” value is recorded as 0.73 ± 0.19 Gy/MBq; the “Absorbed dose per administered activity, Stomach wall” value is listed as 5.78 ± 0.77 Gy/MBq; the “Absorbed dose per administered activity, Tumor” value was 35.49 ± 9.89 Gy/MBq.

For `C[C@@H](O)[C@H](NC(=O)[C@@H]1CSSC[C@H](NC(=O)[C@@H](Cc2ccccc2)NC(=O)CN2CCC(NC(=O)CN3CCN(CC(N)=O)CCN(CC(N)=O)CCN(CC(N)=O)CC3)CC2)C(=O)N[C@@H](Cc2ccc(O)cc2)C(=O)N[C@H](Cc2c[nH]c3ccccc23)C(=O)N[C@@H](CCCCN)C(=O)N[C@@H]([C@@H](C)O)C(=O)N1)C(=O)O` [[^203Pb]Pb-DOTAM-Pip-TATE] [metal not drawn], the “Stability in mouse serum (%)” value in “in vitro” (1 h), in the data set “in vitro” (4 h) and in “in vitro” (24 h) was 97% each time.

In “in vitro”, `C[C@@H](O)[C@H](NC(=O)[C@@H]1CSSC[C@H](NC(=O)[C@@H](Cc2ccccc2)NC(=O)[C@H]2CC[C@H](CNC(=O)CN3CCN(CC(N)=O)CCN(CC(N)=O)CCN(CC(N)=O)CC3)CC2)C(=O)N[C@@H](Cc2ccc(O)cc2)C(=O)N[C@H](Cc2c[nH]c3ccccc23)C(=O)N[C@@H](CCCCN)C(=O)N[C@@H]([C@@H](C)O)C(=O)N1)C(=O)O` [[^212Pb]Pb-DOTAM-Amcha-TATE, metal not drawn] returned an amount remaining at 1 h of 96%, an amount remaining at 4 h of 96% and a share remaining at 24 h of 93%.
